Results: patent US10202627B2, “Method for producing trehangelin” (THE KITASATO INSTITUTE, priority 2016, dated 2019)

Columns and labels:
[1] = system: animal cells (particularly, human cells); conditions: cited from earlier work
[2] = acyltransferase activity of OrfC inferred from Streptomyces albus/pOSV556-orfABCD culture; type: cell-based, Streptomyces albus J1074; conditions: inferred from Examples 1 to 4
Experimental: Streptomyces albus/pOSV556-orfABCD was grown by shake culture in 10 ml of a liquid medium containing 1% yeast extract and 1% glucose at 27° C. for 1 day, which was then added 1 ml of 20% trehalose aqueous solution, and the shake culture was continued at 27° C. for 4 more days. The obtained culture medium was added 10 ml of ethanol and stirred for 1 hour. Ethanol in the extract was then removed by distillation under reduced pressure, and 5 ml of ethyl acetate was added to the obtained aqueous solution, which was thoroughly stirred, and then the ethyl acetate phase was collected. After concentration to dryness, the solid was dissolved in 100 μl of methanol and analysed on LC/MS to confirm production of trehangelin (FIG. 1).

[3] = 3-ketoacyl-CoA synthase activity of recombinant OrfB, LC/MS; type: biochemical; conditions: 2.5 μg orfB, 250 μM acetyl-CoA, 250 μM methylmalonyl-CoA, pH 7.5, 27° C., 16 hours
Experimental: (§1) A substrate of the target enzyme is added to the reaction solution. Specifically, in a 3-ketoacyl-CoA synthase activity assay, acetyl-CoA and methylmalonyl-CoA are added. In a 3-ketoacyl-CoA reductase activity assay, 2-methylacetoacetyl-CoA is added. In an enoyl-CoA hydratase activity assay, 3-hydroxy-2-methylbutyryl-CoA is added. In an acyltransferase activity assay, angelyl-CoA is added. The concentration of the substrate may be any concentration as far as it has no effect on the reaction, and is suitably 0.01 mM to 0.2 M of the reaction solution. The enzyme concentration for the reaction is not particularly limited, and is usually in a range of 0.001 mg/ml to 100 mg/ml.
(§2) The activity may be detected by a method that can measure a decrease of substrates or an increase of reaction products during the reaction. Examples of such methods include a method that separates and quantifies a target substance optionally by using thin layer chromatography, column chromatography, high-performance liquid chromatography (HPLC) and the like. […]
Next, it was examined whether the obtained recombinant enzyme protein (OrfB) catalyses production of 2-methylacetoacetyl-CoA from acetyl-CoA and methylmalonyl-CoA by employing the following reaction conditions. […] After termination of the reaction by adding 100 μl of methanol, it was analysed on LC/MS.

[4] = enoyl-CoA hydratase activity of recombinant OrfA, LC/MS; type: biochemical; conditions: 15.8 μg orfA with orfB and orfD, 500 μM NADPH, pH 7.5, 27° C., 16 hours
Experimental: as §1, §2
(§3) Next, it was examined whether the obtained recombinant enzyme protein (OrfA) catalysed production of angelyl-CoA from 3-hydroxy-2-methylbutyryl-CoA by employing the following reaction conditions. […] After termination of the reaction by adding 100 μl of methanol, it was analysed on LC/MS.

[5] = 3-ketoacyl-CoA reductase activity of recombinant OrfD, LC/MS; type: biochemical; conditions: 0.8 μg orfD with 2.5 μg orfB, 500 μM NADPH, pH 7.5, 27° C., 16 hours
Experimental: as §1, §2
as §3, with “(OrfD)” for “(OrfA)”, “3-hydroxy-2-methylbutyryl-CoA” for “angelyl-CoA”, “2-methylacetoacetyl-CoA” for “3-hydroxy-2-methylbutyryl-CoA”

Molecule: C/C=C(/C)C(=O)OC1C(O)C(CO)OC(OC2OC(CO)C(O)C(OC(=O)/C(C)=C\C)C2O)C1O (stereo not drawn) [Trehangelin A]
- toxicity towards animal cells (particularly, human cells) [1]: do not exhibit toxicity

Molecule: C/C=C(/C)C(=O)OC1C(OC2OC(CO)C(O)C(OC(=O)/C(C)=C\C)C2O)OC(CO)C(O)C1O (stereo not drawn) [Trehangelin B]
- toxicity towards animal cells (particularly, human cells) [1]: do not exhibit toxicity

B1: OrfC: enzyme protein encoded by SEQ ID NO: 6, acyltransferase from Polymorphospora rubra K07-0510 (protein)
chain: MTTSALGAEPGATDPPAAPPVSYAPSGRMPRTINRWPRPFAPRNILGVLRARLRGATISLNQVKFDESTAERNALVMEHALLRHSHVARYAIVGPFTSLFKVRVGPYAGIAEKVTVGALPHWPELPTSHVFPVNAEFGFCAGEWPEVPGTEVGADAWIGAGAVVRAGVRIGHGAIVAAGAVVTRDVADYEIVAGVPARRLRSRFPDDLAERLVALAWWDWPPGFIKANIDLFQRPLTADTLAALEERARALPTPPGGAA
modifications: Polymorphospora rubra K07-0510; CDS (1)..(780)
- acyltransferase activity (trehangelin from angelyl-CoA and trehalose) [2]: had an acyltransferase activity

B2: OrfB: enzyme protein encoded by SEQ ID NO: 4, 3-ketoacyl-CoA synthase from Polymorphospora rubra K07-0510 (protein)
chain: MSTSTVIGTGSYLPRRVLSSGELARRVGVAENWIVEKTGIRERRVAADEEATSDLATRAARRALRTARLDPADVDLIVLATSTPDRPMPATASTVQANLGARQAVAFDVDAVCSGFVYALVVAHSMLNSEGWARTALVIGADTYSRVLDYTDRRTAVLFGDGAGAVVLGRETGGGSGIRATTLGTDGTLADLVQIPAGGSRRPASAQTVEAGDHYFAMRGGDVRRLANQVFPALVGQLLKAASLDLDQVDLIAAHQANGTMLTDWSRDLGLRPGVLHRTVERYGNTGAASVPVTLDDAVRTGRLGAAATLLMVAFGGGMTWGGVALDWSADPSVPRSNCVR
modifications: Polymorphospora rubra K07-0510; CDS (1)..(1026)
- production of 2-methylacetoacetyl-CoA from acetyl-CoA and methylmalonyl-CoA [3]: production of 2-methylacetoacetyl-CoA was observed

B3: OrfA: enzyme protein encoded by SEQ ID NO: 2, enoyl-CoA hydratase from Polymorphospora rubra K07-0510 (protein)
chain: VTRPDAPGPPVAAPDPADAVVTAVEPYVVRATINRPARRNAIDLAVIEGLERAIDLAEATGARVLVLRGAGGTFCSGADLRVLEEMSVDPHRVETFMVRLALVLRRLETARFVSVAVVEGHAVAGGCEILLACDVSVAATDARIGDRHLEYGLVPAAGGSVRLARTLPKARGNYLLLAADLLTGEQAAQWGLVSVAVPPTDLEPRVDALVGRLVGHSADALAVVKKMVWTADHEPRPDAMSWERRLFLRHLGSEDVSEGLRAFRERRRPAFRADD
modifications: Polymorphospora rubra K07-0510; CDS (1)..(828)
- production of angelyl-CoA from 3-hydroxy-2-methylbutyryl-CoA [4]: production of angelyl-CoA was observed

B4: OrfD: enzyme protein encoded by SEQ ID NO: 8, 3-ketoacyl-CoA reductase from Polymorphospora rubra K07-0510 (protein)
chain: VTAGTGQPVVAAPGRALADRVVVVTGASRGVGRDLARVFADHGARLGLLARSRDALDDLGGTLTAAGADVLAVPCDVGEPDSLAGAVDAVAGHFGGIDSVVVNAGISPVARRAHHLPIDAWHDVLATNLTGGFVTARAAYPHLARSGRGRLVFTTSVMAATPRRGLSAYAASKAGLEGLTRALAADWAGDGILVNAVAPGFFDTGLGAAFHTSQRLHEQVVGRTPVARFGRADELAAAFVFLAGDACGYLTGQVLAVDGGYGLG
modifications: Polymorphospora rubra K07-0510; CDS (1)..(795)
- production of 3-hydroxy-2-methylbutyryl-CoA from 2-methylacetoacetyl-CoA [5]: production of 3-hydroxy-2-methylbutyryl-CoA was observed
